Experimental data as given in the supplement of paper PMC9112550, “Optimization of the antimicrobial peptide Bac7 by deep mutational scanning” (BMC Biology, 2022).

test system: Escherichia coli TOP10; test: shrunken log2 fold change of peptide-encoding DNA abundance (4.5 h post-induction vs induction); higher = less antimicrobial activity (less host growth inhibition); details: time post-induction: 4.5 h; library: site-saturation at positions 5, 18, 19, 20
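Also: peptides expressed intracellularly from a pBAD plasmid library in pooled LB shake-flask culture, induced with 0.3% L-arabinose, DNA abundance read by NGS, three biological replicates, DESeq2 with apeglm shrinkage.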

| Sequence | shrunken log2 fold change |
| --- | --- |
| RRIRGRPPRLPRPRPRPKQPPRP | 1.08 |
| RRIRIRPPRLPRPRPRPLNNPRP | -1.15 |
| RRIRDRPPRLPRPRPRPFEIPRP | -0.0367 |
| RRIRIRPPRLPRPRPRPYQSPRP | -0.0409 |
| RRIRSRPPRLPRPRPRPIMSPRP | -0.173 |
| RRIRKRPPRLPRPRPRPVFGPRP | 0.176 |
| RRIRYRPPRLPRPRPRPMKWPRP | 0.00957 |
| RRIRMRPPRLPRPRPRPPFGPRP | 0.789 |
| RRIRMRPPRLPRPRPRPQWFPRP | -0.0662 |
| RRIRPRPPRLPRPRPRPTEAPRP | -0.258 |
| RRIRIRPPRLPRPRPRPQFRPRP | -0.234 |
| RRIRERPPRLPRPRPRPLMGPRP | 0.247 |
| RRIRGRPPRLPRPRPRPHYWPRP | 0.12 |
| RRIRRRPPRLPRPRPRPKKHPRP | 0.197 |
| RRIRGRPPRLPRPRPRPTTQPRP | 0.429 |
| RRIRYRPPRLPRPRPRPLKCPRP | -0.301 |
| RRIRKRPPRLPRPRPRPRKGPRP | -0.0408 |
| RRIRQRPPRLPRPRPRPEWAPRP | 0.0739 |
| RRIRYRPPRLPRPRPRPYWCPRP | -0.0606 |
| RRIRPRPPRLPRPRPRPMCWPRP | 0.156 |
| RRIRSRPPRLPRPRPRPRRKPRP | 0.207 |
| RRIRSRPPRLPRPRPRPMHFPRP | 0.0521 |
| RRIRSRPPRLPRPRPRPPGVPRP | 0.293 |
| RRIRPRPPRLPRPRPRPTGHPRP | 0.0828 |
| RRIRSRPPRLPRPRPRPNFMPRP | -0.43 |

| Sequence | shrunken log2 fold change |
| --- | --- |
| RRIRYRPPRLPRPRPRPSQQPRP | 0.102 |
| RRIRTRPPRLPRPRPRPDWRPRP | 0.0352 |
| RRIRLRPPRLPRPRPRPDAEPRP | 0.326 |
| RRIRTRPPRLPRPRPRPNEGPRP | -0.191 |
| RRIRNRPPRLPRPRPRPSDNPRP | -0.494 |
| RRIRERPPRLPRPRPRPPRDPRP | 0.226 |
| RRIRQRPPRLPRPRPRPMTHPRP | -0.466 |
| RRIRVRPPRLPRPRPRPNKDPRP | -0.448 |
| RRIRFRPPRLPRPRPRPYMWPRP | -1.43 |
| RRIRNRPPRLPRPRPRPLILPRP | -0.303 |
| RRIRMRPPRLPRPRPRPIWIPRP | 0.14 |
| RRIRWRPPRLPRPRPRPAIKPRP | 0.0964 |
| RRIRNRPPRLPRPRPRPITHPRP | -0.644 |
| RRIRMRPPRLPRPRPRPARKPRP | 1.29 |
| RRIRYRPPRLPRPRPRPNQLPRP | -0.439 |
| RRIRDRPPRLPRPRPRPLNPPRP | -0.478 |
| RRIRYRPPRLPRPRPRPTRVPRP | 0.303 |
| RRIRYRPPRLPRPRPRPLFIPRP | -0.683 |
| RRIRHRPPRLPRPRPRPLDRPRP | -0.56 |
| RRIRFRPPRLPRPRPRPVHFPRP | -0.263 |
| RRIRIRPPRLPRPRPRPQAGPRP | -0.16 |
| RRIRGRPPRLPRPRPRPTCQPRP | 0.71 |
| RRIRYRPPRLPRPRPRPFDYPRP | -0.184 |
| RRIRERPPRLPRPRPRPEQVPRP | -0.0135 |
| RRIRDRPPRLPRPRPRPDVRPRP | 0.0212 |

| Sequence | shrunken log2 fold change |
| --- | --- |
| RRIRLRPPRLPRPRPRPWSFPRP | 0.018 |
| RRIRMRPPRLPRPRPRPMIPPRP | -0.448 |
| RRIRPRPPRLPRPRPRPNPRPRP | 0.596 |
| RRIRCRPPRLPRPRPRPRGKPRP | 0.777 |
| RRIRARPPRLPRPRPRPMLSPRP | 0.133 |
| RRIRRRPPRLPRPRPRPSCDPRP | 0.177 |
| RRIRCRPPRLPRPRPRPEFEPRP | 0.0293 |
| RRIRNRPPRLPRPRPRPMKSPRP | -0.106 |
| RRIRRRPPRLPRPRPRPSAYPRP | 0.104 |
| RRIRWRPPRLPRPRPRPQHKPRP | -0.0725 |
| RRIRLRPPRLPRPRPRPSWDPRP | -0.0231 |
| RRIRYRPPRLPRPRPRPVPTPRP | -0.0167 |
| RRIRQRPPRLPRPRPRPPWQPRP | 0.729 |
| RRIRSRPPRLPRPRPRPCRTPRP | -0.2 |
| RRIRYRPPRLPRPRPRPSMSPRP | -1.19 |
| RRIRFRPPRLPRPRPRPCSEPRP | 0.0135 |
| RRIRERPPRLPRPRPRPEAPPRP | 0.406 |
| RRIRRRPPRLPRPRPRPNLNPRP | -0.0389 |
| RRIRGRPPRLPRPRPRPILPPRP | 0.0676 |
| RRIRARPPRLPRPRPRPGHAPRP | 0.16 |
| RRIRQRPPRLPRPRPRPFPDPRP | -0.108 |
| RRIRHRPPRLPRPRPRPGMEPRP | -0.0685 |
| RRIRQRPPRLPRPRPRPFFTPRP | -0.343 |
| RRIRKRPPRLPRPRPRPETVPRP | 0.0854 |
| RRIRQRPPRLPRPRPRPGYWPRP | -0.116 |
